The text below walks through data of the RNAGym collection of RNA variant scans (doi:10.7554/elife.80360).

B1: Hairpin Ribozyme (parent)
chain: GUCCUCUUUCACGUGCGCGUGAAAGAGAGAAGUGAACCAGAGAAACACACGUUGUGGUAUAUUACCUGGUA

The series covers variants of B1. Put plainly: self-cleavage, relative activity (ratio to wild type); higher = more cleavage; co-transcriptional.
For the variant G32U G56C, the self-cleavage worked out at 0.152.

Consider G34C A49G, for which the self-cleavage came out at 1.42.

Take U33A U67C: the self-cleavage worked out at 0.104.

G32A G57C: the self-cleavage is 0.117.

For U33C A43U, the self-cleavage is 0.231.

With U33C A43C, the self-cleavage turned out to be 0.

G32A G34A: the self-cleavage worked out at 0.07.

For the variant G32A G40C, the self-cleavage turned out to be 0.156.

For G34U U60C, the self-cleavage came out at 1.42.

In the case of G32C G57U, the self-cleavage is 0.072.

For the variant G32C G57A, the self-cleavage came to 0.0977.

Turning to G32A A39U, the self-cleavage turned out to be 0.108.

For G34U A45C, the self-cleavage was determined as 0.213.

As for U33A C46A, the self-cleavage turned out to be 0.122.

U33A C46G: the self-cleavage worked out at 0.176.

Consider U33C C65U, for which the self-cleavage worked out at 0.2.

For the variant G32C G40U, the self-cleavage was 0.086.

Consider U33C A61C, for which the self-cleavage was determined as 0.074.

Regarding U33C A61U, the self-cleavage worked out at 0.163.

In the case of U33G G51U, the self-cleavage amounted to 0.252.

U33G G51C: the self-cleavage was 0.202.

With G32A U63A, the self-cleavage came out at 0.132.

As to G34A A35U, the self-cleavage worked out at 0.569.

U33G A64U: the self-cleavage was determined as 0.144.

Consider G34A U58G, for which the self-cleavage stood at 1.36.

On to G34A U58A, for which the self-cleavage amounted to 1.09.

As for U33C A39G, the self-cleavage was determined as 0.134.

With G34A C46U, the self-cleavage was 0.135.

Turning to U33C U58C, the self-cleavage worked out at 0.169.

Take G32C G54U: the self-cleavage is 0.0594.

In the case of G32C G54A, the self-cleavage came to 0.0613.

As for G32C A45G, the self-cleavage is 0.0948.

In the case of G32C A45C, the self-cleavage was 0.145.

In the case of U33G U55C, the self-cleavage was 0.117.

With U33A C48G, the self-cleavage is 0.123.

With U33A C48U, the self-cleavage worked out at 0.0718.

With U33C U60G, the self-cleavage was found to be 0.0999.

In the case of U33C U60A, the self-cleavage worked out at 0.14.

Consider G32U G57A, for which the self-cleavage was determined as 0.139.

Turning to G32U G57C, the self-cleavage came to 0.129.

Regarding G32U U63C, the self-cleavage stood at 0.268.

With G32U U63G, the self-cleavage was 0.113.

For the variant U33A A43G, the self-cleavage came to 0.169.

Take G34C U55C: the self-cleavage is 1.19.

U33G U52C: the self-cleavage was determined as 0.145.

U33G U52A: the self-cleavage came to 0.17.

For the variant G34A G69U, the self-cleavage stood at 0.208.

Consider U33A G68C, for which the self-cleavage is 0.138.

U33A G68A: the self-cleavage amounted to 0.161.

Turning to G34C C46A, the self-cleavage turned out to be 0.238.

Regarding G34C C46G, the self-cleavage is 0.0437.

For G32A A61U, the self-cleavage was 0.154.

A31U U70A: the self-cleavage was 0.0877.

On to G34C G69C, for which the self-cleavage is 0.564.

Take G34A A47C: the self-cleavage was 0.451.

As to G34A A47U, the self-cleavage stood at 0.144.

Consider G34A A47G, for which the self-cleavage turned out to be 0.302.

On to G32C C65G, for which the self-cleavage was 0.0614.

With U33A C50A, the self-cleavage was determined as 0.18.

As to U33A C50U, the self-cleavage came out at 0.105.

Regarding U33G U58C, the self-cleavage is 0.119.

On to G32C A61G, for which the self-cleavage stood at 0.136.

As to U33G, the self-cleavage stood at 0.127.

With U33C, the self-cleavage was 0.161.

With U33A, the self-cleavage came out at 0.147.

For G34A C50U, the self-cleavage is 0.653.

In the case of G32U A44G, the self-cleavage was determined as 0.0996.

Take G34C U58A: the self-cleavage is 1.27.

With G34C U58G, the self-cleavage worked out at 1.09.

Turning to G34C C65G, the self-cleavage came to 1.07.

As for G34C C65U, the self-cleavage amounted to 1.04.

Consider G32C C66A, for which the self-cleavage is 0.0957.

Consider G32C C48U, for which the self-cleavage stood at 0.169.

As for G32C A36G, the self-cleavage worked out at 0.0754.

G32C A36U: the self-cleavage stood at 0.136.

In the case of G34U C38G, the self-cleavage was determined as 0.595.

On to G34U C38U, for which the self-cleavage is 1.42.

Take G34A A61G: the self-cleavage was 0.091.

As for U33G G68A, the self-cleavage came out at 0.151.

Regarding U33G G68U, the self-cleavage came to 0.0922.

In the case of U33C G56C, the self-cleavage worked out at 0.167.

Consider U33C G56A, for which the self-cleavage was determined as 0.0589.

As for G34A A36U, the self-cleavage was 0.832.

As to G34A A36G, the self-cleavage stood at 1.19.

As to U33G G69U, the self-cleavage was determined as 0.123.

U33G G69A: the self-cleavage turned out to be 0.0603.

Take G32A A43C: the self-cleavage turned out to be 0.0569.

With G32A A43G, the self-cleavage amounted to 0.141.

With G32C U55C, the self-cleavage is 0.0178.

As for U33A A49U, the self-cleavage was found to be 0.194.

Turning to U33G U67A, the self-cleavage came to 0.146.

As to U33G U67C, the self-cleavage amounted to 0.111.

Take U33A A64G: the self-cleavage came to 0.164.

Regarding G34A U53G, the self-cleavage worked out at 1.17.

For the variant U33A U62C, the self-cleavage was found to be 0.184.

Turning to G32C U52G, the self-cleavage worked out at 0.125.

As to U33G U60G, the self-cleavage amounted to 0.0365.

Take U33G U60A: the self-cleavage was found to be 0.0846.

As for G32U C37U, the self-cleavage was 0.161.

Consider G32U C37A, for which the self-cleavage worked out at 0.0811.

Turning to U33C C50A, the self-cleavage came out at 0.114.

Turning to U33C U53C, the self-cleavage was 0.154.

As to G32C U70A, the self-cleavage is 0.0808.

Regarding U33G A59C, the self-cleavage stood at 0.139.

G34C A71C: the self-cleavage amounted to 1.76.

On to U33A A59G, for which the self-cleavage worked out at 0.106.

For G34C G54U, the self-cleavage came to 1.19.

Regarding A31U U62G, the self-cleavage worked out at 0.

For the variant A31U U62C, the self-cleavage was determined as 0.147.

Consider G32U G54A, for which the self-cleavage is 0.105.

With G32U G54U, the self-cleavage stood at 0.0884.

Turning to U33C U63A, the self-cleavage is 0.142.

Take G34C A39C: the self-cleavage is 0.9.

For the variant U33A A71G, the self-cleavage is 0.178.

As to U33G A45C, the self-cleavage stood at 0.112.

In the case of U33G A45G, the self-cleavage came out at 0.0332.

For U33C A41U, the self-cleavage is 0.159.

In the case of G32U A39U, the self-cleavage worked out at 0.125.

For the variant G32A U67G, the self-cleavage was determined as 0.0549.

Regarding U33G A36G, the self-cleavage amounted to 0.0878.

In the case of U33G A71U, the self-cleavage turned out to be 0.067.

With U33G A71C, the self-cleavage was found to be 0.307.

G32U C50A: the self-cleavage worked out at 0.0903.

With G34A U67G, the self-cleavage came to 0.346.

For the variant G34A U67C, the self-cleavage was 0.463.

With G32C U62C, the self-cleavage came to 0.2.

For the variant G34C G57C, the self-cleavage amounted to 0.195.

Consider U33C U55A, for which the self-cleavage was 0.0653.

In the case of G32U C66G, the self-cleavage was 0.19.

As to G32C A39C, the self-cleavage turned out to be 0.135.

For the variant G34C C50U, the self-cleavage is 1.36.

On to G34C C50G, for which the self-cleavage was determined as 1.45.

For G34U A41U, the self-cleavage was found to be 1.53.

For G32U A64U, the self-cleavage was 0.126.

On to G32U A64G, for which the self-cleavage came out at 0.162.

G32U A64C: the self-cleavage is 0.258.

In the case of U33A G51U, the self-cleavage was 0.129.

With U33A G51A, the self-cleavage was found to be 0.177.

With U33C G57U, the self-cleavage turned out to be 0.19.

With G34C U67G, the self-cleavage amounted to 0.517.

G34U G42A: the self-cleavage came out at 0.883.

For the variant U33A U63A, the self-cleavage stood at 0.0514.

Take U33A U63G: the self-cleavage came out at 0.27.

Consider U33A U52C, for which the self-cleavage is 0.122.

As for U33A U52G, the self-cleavage was 0.111.

For the variant U33C C46A, the self-cleavage stood at 0.0278.

U33A C37A: the self-cleavage was determined as 0.112.

Turning to G34A C66A, the self-cleavage came out at 0.469.

For G32U U58C, the self-cleavage turned out to be 0.116.

Turning to U33A U70A, the self-cleavage stood at 0.0761.

On to G34U U58A, for which the self-cleavage was 1.5.

For U33C G68C, the self-cleavage turned out to be 0.0535.

In the case of G32C G69A, the self-cleavage came to 0.149.

G34U A43U: the self-cleavage amounted to 0.0758.

For G34U A43C, the self-cleavage stood at 0.0997.

As to G32U U60C, the self-cleavage stood at 0.0374.

For G32U U60A, the self-cleavage was determined as 0.17.

As for G34C A59C, the self-cleavage is 0.145.

In the case of G34C A59U, the self-cleavage came to 0.202.

Turning to G32U G69A, the self-cleavage amounted to 0.115.

With G32U A59U, the self-cleavage amounted to 0.0402.

With G32U A59C, the self-cleavage is 0.0899.

With A31U U63A, the self-cleavage was determined as 0.0279.

As for A31U U63G, the self-cleavage stood at 0.0484.

With U33A A45U, the self-cleavage is 0.2.

With G34U A44C, the self-cleavage was 0.202.

As for G34C G68C, the self-cleavage was determined as 0.484.
